Test results as given in paper PMC7913695, “Mechanism of DNA cleavage by the endonuclease SauUSI: a major barrier to horizontal gene transfer and antibiotic resistance in Staphylococcus aureus”.

T1: SauUSI (Staphylococcus aureus, UniProt Q2FVC3 1-953)
T1 sequence: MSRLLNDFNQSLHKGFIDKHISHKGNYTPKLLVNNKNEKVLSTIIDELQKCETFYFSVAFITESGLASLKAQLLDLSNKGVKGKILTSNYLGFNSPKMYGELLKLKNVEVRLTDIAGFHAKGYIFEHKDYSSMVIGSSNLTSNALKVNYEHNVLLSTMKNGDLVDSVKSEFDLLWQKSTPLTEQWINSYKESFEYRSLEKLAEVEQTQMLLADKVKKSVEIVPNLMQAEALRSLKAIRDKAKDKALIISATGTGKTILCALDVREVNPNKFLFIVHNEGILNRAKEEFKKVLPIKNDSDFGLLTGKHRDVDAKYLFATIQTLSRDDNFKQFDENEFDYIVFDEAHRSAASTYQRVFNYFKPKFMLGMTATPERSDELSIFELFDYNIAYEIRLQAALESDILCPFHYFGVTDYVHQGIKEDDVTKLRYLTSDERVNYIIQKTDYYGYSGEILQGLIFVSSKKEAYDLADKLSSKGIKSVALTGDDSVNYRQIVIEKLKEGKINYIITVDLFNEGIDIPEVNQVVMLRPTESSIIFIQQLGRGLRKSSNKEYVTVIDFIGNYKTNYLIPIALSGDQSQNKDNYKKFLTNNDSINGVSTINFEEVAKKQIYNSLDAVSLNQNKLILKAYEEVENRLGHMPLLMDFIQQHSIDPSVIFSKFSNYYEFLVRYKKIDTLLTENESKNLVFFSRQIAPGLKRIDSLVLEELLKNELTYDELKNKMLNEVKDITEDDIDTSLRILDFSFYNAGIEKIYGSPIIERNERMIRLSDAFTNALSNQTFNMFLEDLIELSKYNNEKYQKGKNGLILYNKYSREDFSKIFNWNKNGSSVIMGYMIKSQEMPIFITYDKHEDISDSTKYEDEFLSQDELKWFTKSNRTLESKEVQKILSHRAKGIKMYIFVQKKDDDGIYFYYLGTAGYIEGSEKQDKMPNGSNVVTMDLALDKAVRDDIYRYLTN


How the values were obtained:
[1] = target: SauUSI (Staphylococcus aureus); assay: SEC-MALS; 1 mg/ml SauUSI injected on Superdex 200 in 50 mM Tris-HCl pH 8, 50 mM NaCl, 1 mM DTT
SauUSI = target: T1, SauUSI; assay: EMSA; 250 nM DNA; shift first detected at 0.1 uM SauUSI (0.05-1.6 uM tested); Protein and DNA incubated 20 min on ice; 5% native PAGE, ethidium bromide stain; binding buffer, salt and pH not stated; settings: protein: recombinant; tags: His-tag (HisTrap purified); chain copies: 2; blunt

Molecule | stoichiometry N [1] | binding result (SauUSI)
SauUSI (enzyme) | 2 | 
EMSA methylated 60 bp (specific DNA) (dsDNA, 5-methyl-dC at position 28 of strand 1 and position 31 of strand 2 (both strands)) DNA 1: GCCGCGGATCCTTCACAAGACGATTACCGGCGCTGAAAGACCAGCATATGCAATTTGACT DNA 2: AGTCAAATTGCATATGCTGGTCTTTCAGCGCCGGTAATCGTCTTGTGAAGGATCCGCGGC |  | binds
